The target in experiment [1] is T1, recombinant protein His-fib-mfTL1A (Macaca fascicularis).
T1 construct: also called monkey TL1A; Macaca fascicularis TL1A
T1 chain: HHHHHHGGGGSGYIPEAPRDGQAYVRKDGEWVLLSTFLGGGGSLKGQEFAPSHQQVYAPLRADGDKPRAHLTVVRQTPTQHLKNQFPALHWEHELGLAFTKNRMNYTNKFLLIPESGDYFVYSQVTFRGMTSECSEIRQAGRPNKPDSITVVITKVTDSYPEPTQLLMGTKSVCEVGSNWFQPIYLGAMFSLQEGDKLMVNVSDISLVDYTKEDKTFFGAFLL
Nature of the experiment: SPR, Biacore T200; antibody captured by anti-human IgG (Fc), TL1A as analyte; 1:1 model.

The target in experiment [2] is T2, recombinant protein His-fib-rTL1A (rat).
T2 construct: also called rat TL1A
T2 chain: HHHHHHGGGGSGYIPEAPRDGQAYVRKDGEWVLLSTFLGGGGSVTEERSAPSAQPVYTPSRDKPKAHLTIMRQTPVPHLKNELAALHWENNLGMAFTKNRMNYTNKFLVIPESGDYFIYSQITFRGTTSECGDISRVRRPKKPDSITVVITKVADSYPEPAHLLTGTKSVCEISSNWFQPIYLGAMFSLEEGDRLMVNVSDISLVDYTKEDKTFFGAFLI
Described as above.

In experiment [3] the target is T1, recombinant protein His-fib-mfTL1A. The description is as above.
In experiment [4] the target is T3, recombinant protein His-fib-hTL1A (human).
T3 chain: T1 chain with L82F, V121I
The experiment in a line: cell-based or functional assay.

In experiment [5] the target is T3, recombinant protein His-fib-hTL1A. Nature of the experiment: cell-based or functional assay.
For experiment [6] the target is unchanged. The experiment in a line: cell-based or functional assay.
Experiment [7] shares this target. Nature of the experiment: cell-based or functional assay.
The target in experiment [8] is T4, recombinant protein His-fib-mTL1A (mouse).
T4 construct: also called mouse TL1A
T4 chain: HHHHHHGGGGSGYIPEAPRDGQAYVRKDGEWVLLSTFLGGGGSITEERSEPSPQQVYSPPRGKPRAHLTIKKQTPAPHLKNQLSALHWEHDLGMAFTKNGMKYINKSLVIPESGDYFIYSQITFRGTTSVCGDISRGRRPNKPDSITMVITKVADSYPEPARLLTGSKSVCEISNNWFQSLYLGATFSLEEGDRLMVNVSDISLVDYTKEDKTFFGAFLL
Nature of the experiment: SPR, Biacore T200; antibody captured by anti-human IgG (Fc), TL1A as analyte; 1:1 model. Background: SPR reads the build-up and loss of mass on a sensor chip optically.

The target in experiment [9] is T3, recombinant protein His-fib-hTL1A. Described as above.
Experiment [10] has the same target. The experiment is described as above.
Experiment [11] has the same target. Nature of the experiment: cell-based or functional assay.
The target in experiment [12] is T4, recombinant protein His-fib-mTL1A. The experiment in a line: SPR, Biacore T200; antibody captured by anti-human IgG (Fc), TL1A as analyte; 1:1 model.
Experiment [13] has as its target T2, recombinant protein His-fib-rTL1A. The experiment in a line: SPR, Biacore T200; antibody captured by anti-human IgG (Fc), TL1A as analyte.
Experiment [14] has as its target T4, recombinant protein His-fib-mTL1A. Described as above.

Numbering of substitutions follows the chain as printed. Like-named read-outs stand apart in the source and are kept apart here.

B1: anti-TL1A monoclonal antibody RVT-3101 (antibody, V domains shown)
VH: QVQLVQSGAEVKKPGASVKVSCKASGYDFTYYGISWVRQAPGQGLEWMGWISTYNGNTHYARMLQGRVTMTTDTSTRTAYMELRSLRSDDTAVYYCARENYYGSGAYRGGMDVWGQGTTVTVSS
VL: EIVLTQSPATLSLSPGERATLSCRASQSVSSYLAWYQQKPGQAPRLLIYDASNRATGIPARFSGSGSGTDFTLTISSLEPEDFAVYYCQQRSNWPWTFGQGTKVEIK
Usually Kd stands for the concentration at which binding is half-saturated. Broadly, the koff is the first-order rate constant of dissociation. As usually defined, the kon is a measure of how fast the partners come together. Take B1: the Kd was 0.05 nM in experiment [1]; 0.434 nM in experiment [2]; 0.0275 nM in experiment [3]; 0.0775 nM in experiment [8]; 0.154 nM in experiment [9]; 0.144 nM in experiment [10]. In experiment [12], the Kd amounted to 0.0482 nM. Also, the koff in experiment [1] was determined as 6.7e-05 s⁻¹; in [2], 0.000424 s⁻¹; in experiment [3], 4.51e-05 s⁻¹; in [8], 5.92e-05 s⁻¹; in experiment [9], 0.0001 s⁻¹; in experiment [10] it was 0.000102 s⁻¹. Besides, in experiment [12], the koff was found to be 4.36e-05 s⁻¹. For the same molecule, the kon in experiment [1] stood at 1.34e+06 M⁻¹ s⁻¹; in experiment [2], 978000 M⁻¹ s⁻¹; in experiment [3] it was 1.64e+06 M⁻¹ s⁻¹; in experiment [8], 764000 M⁻¹ s⁻¹; in experiment [9], 652000 M⁻¹ s⁻¹; in experiment [10] it was 706000 M⁻¹ s⁻¹. In addition, the kon in experiment [12] stood at 904000 M⁻¹ s⁻¹. Also, the “IC50 of inhibition of caspase activation in TL1A-stimulated TF-1 cells” value in experiment [4] was found to be 3.46 nM. The “IC50 of inhibition of NF-kB activation in TL1A-stimulated 293T-hDR3-NF-kB-RE-luci cells” value (“IC50 of inhibition of NF-kB activation” for short) is 1.08 nM in experiment [5] and 1.28 nM in experiment [11]. In addition, the “IC50 of inhibition of caspase-3/7 activation in TL1A-stimulated TF-1 cells” value in [6] worked out at 3.13 nM. Moreover, the “IC50 of inhibition of interferon-gamma secretion by TL1A-stimulated PBMCs” value in [7] is 13.6 nM.

B2: mouse anti-TL1A monoclonal antibody S9H9 (antibody, V domains shown)
VH: QVQLKQSGAELVRPGTSVKISCKASGYAFTNYWLGWIKQRPGHGLEWIGDIHPGRGNIFYNEKFKGKATLTADKSSSTAYMQLSSLTSEDSAVYFCAEGYDTFDYWGQGTTLTVSA
VL: DIVMTQSHKFMSTSVGDRVSITCKASQDVSTAVAWYQQKPGQSPKLLIYSASYRYTGVPDRFTGSGSGTDFTFTISSVQAEDLAVYYCQQHYSTPWTFGGGTKLEMKR
For the molecule B2, in [3], the Kd is 0.0603 nM, the koff came to 0.000175 s⁻¹ and the kon came to 2.9e+06 M⁻¹ s⁻¹. For the same molecule, the “IC50 of inhibition of caspase-3/7 activation in TL1A-stimulated TF-1 cells” value in [6] worked out at 2.69 nM. In experiment [9], the Kd stood at 0.0374 nM, the koff is 0.000501 s⁻¹ and the kon was found to be 1.34e+07 M⁻¹ s⁻¹. Also, the “IC50 of inhibition of NF-kB activation” value in experiment [11] was found to be 1.28 nM. Besides, in experiment [12], the equilibrium dissociation constant (Kd) is 37.2 nM, the koff amounted to 0.00255 s⁻¹ and the kon amounted to 68600 M⁻¹ s⁻¹.

B3: mouse anti-TL1A monoclonal antibody S7B11 (antibody, V domains shown)
VH: B2 VH with Q3K, K5Q, A9G, F59Y, A116S
VL: DIVMTQSPSYLAASPGETITINCRASKSISKYLAWYQEKPGKTNKLLIYSGSTLQSGIPSRFSGSGSGTDFTLTISSLEPEDFAMYYCQQHNEYPYTFGGGTKLEIKR
As for B3, in experiment [3], the dissociation constant Kd amounted to 0.052 nM, the koff was 6.93e-05 s⁻¹ and the kon is 1.32e+06 M⁻¹ s⁻¹. For the same molecule, the “IC50 of inhibition of caspase-3/7 activation in TL1A-stimulated TF-1 cells” value in experiment [6] came out at 2.69 nM. Also, in experiment [9], the Kd was determined as 0.234 nM, the koff came out at 0.00011 s⁻¹ and the kon was 470000 M⁻¹ s⁻¹. For the same molecule, the “IC50 of inhibition of NF-kB activation” value in experiment [11] came to 1.35 nM. Also, in experiment [12], the Kd turned out to be 53.5 nM, the koff amounted to 0.00366 s⁻¹ and the kon was found to be 68300 M⁻¹ s⁻¹.

B4: anti-TL1A monoclonal antibody PRA023 (antibody, V domains shown)
VH: QVQLVQSGAEVKKPGASVKVSCKASGFDIQDTYMHWVKQRPGQGLEWMGRIDPASGHTKYDPKFQVRVTITRDTSTSTVYLELSSLRSEDTAVYYCARSGGLPDVWGQGTTVTVSS
VL: EIVLTQSPGTLSLSPGERATLSCRASSSVSYMYWYQQKPGQAPRPLIYATSNLASGIPDRFSGSGSGTDFTLTISRLEPEDFAVYYCQQWEGNPRTFGGGTKLEIK
Consider B4, for which the Kd in [1] was found to be 0.0802 nM; in [3] it was 0.0802 nM; in experiment [9] it was 0.355 nM; in [10] it was 0.355 nM. The koff in experiment [1] came to 9.01e-05 s⁻¹; in [3] it was 9.01e-05 s⁻¹; in experiment [9], 0.000169 s⁻¹; in [10] it was 0.000169 s⁻¹. For the same molecule, the kon in [1] came out at 1.12e+06 M⁻¹ s⁻¹; in experiment [3] it was 1.12e+06 M⁻¹ s⁻¹; in [9], 476000 M⁻¹ s⁻¹; in experiment [10], 476000 M⁻¹ s⁻¹. In experiment [4], the “IC50 of inhibition of caspase activation in TL1A-stimulated TF-1 cells” value amounted to 6.52 nM. Moreover, the binding result in [13] and in [14] was “no binding” throughout. In experiment [5], the “IC50 of inhibition of NF-kB activation” value stood at 2.81 nM. In addition, the “IC50 of inhibition of interferon-gamma secretion by TL1A-stimulated PBMCs” value in experiment [7] is 6.54 nM.

B5: mouse anti-TL1A monoclonal antibody S4D3 (antibody, V domains shown)
VH: QVQLKESGSDLATPGASVKLSCKVSGYTFTKYDINWVRQRPEQGLEWIGWIFPGDGRTDYNEKFKGKATLTIDTSSSTAYMQLSRLTSEDSAVYFCARYGYALDYWGQGTSVTVSS
VL: DVVMTQTPLSLPVSLGDQASISCRSSQNIVHSNGDTYLEWFLQKPGQSPKLLIYKVSNRFSGVPDRFSGSGSGTDFTLKISRVEAEDLGVYYCFQGSHFPYTFGGGTKLEMKR
As for B5, in experiment [3], the Kd is 0.0489 nM, the koff was 6.31e-05 s⁻¹ and the kon stood at 1.29e+06 M⁻¹ s⁻¹. In addition, the “IC50 of inhibition of caspase-3/7 activation in TL1A-stimulated TF-1 cells” value in experiment [6] is 3.05 nM. Besides, the binding result in experiment [14] is given as “no binding”. For the same molecule, in experiment [9], the Kd was found to be 0.247 nM, the koff is 0.000131 s⁻¹ and the kon stood at 532000 M⁻¹ s⁻¹. Also, the “IC50 of inhibition of NF-kB activation” value in experiment [11] was 1.13 nM.
